Key:
Type in all cases: functional, cell-based
[1] = substrate: Nc1nc(O)c2ncn(COC(CO)CO)c2n1; assay: (§1) TP_TRANSPORTER: uptake in OAT1-expressing S2 cells
[2] = substrate: Nc1nc2c(ncn2COCCO)c(=O)[nH]1; assay: as §1
[3] = substrate: CC(C)[C@H](N)C(=O)OCCOCn1cnc2c(=O)[nH]c(N)nc21; assay: TP_TRANSPORTER: uptake in OAT3-expressing S2 cells
[4] = substrate: Nc1nc(O)c2ncn(COC(CO)CO)c2n1; assay: (§2) TP_TRANSPORTER: uptake in OCT1-expressing S2 cells
[5] = substrate: Nc1nc2c(ncn2COCCO)c(=O)[nH]1; assay: as §2

B1: Solute carrier family 22 member 6 (Homo sapiens) (protein)
chain: MAFNDLLQQVGGVGRFQQIQVTLVVLPLLLMASHNTLQNFTAAIPTHHCRPPADANLSKNGGLEVWLPRDRQGQPESCLRFTSPQWGLPFLNGTEANGTGATEPCTDGWIYDNSTFPSTIVTEWDLVCSHRALRQLAQSLYMVGVLLGAMVFGYLADRLGRRKVLILNYLQTAVSGTCAAFAPNFPIYCAFRLLSGMALAGISLNCMTLNVEWMPIHTRACVGTLIGYVYSLGQFLLAGVAYAVPHWRHLQLLVSAPFFAFFIYSWFFIESARWHSSSGRLDLTLRALQRVARINGKREEGAKLSMEVLRASLQKELTMGKGQASAMELLRCPTLRHLFLCLSMLWFATSFAYYGLVMDLQGFGVSIYLIQVIFGAVDLPAKLVGFLVINSLGRRPAQMAALLLAGICILLNGVIPQDQSIVRTSLAVLGKGCLAASFNCIFLYTGELYPTMIRQTGMGMGSTMARVGSIVSPLVSMTAELYPSMPLFIYGAVPVAASAVTVLLPETLGQPLPDTVQDLESRWAPTQKEAGIYPRKGKQTRQQQEHQKYMVPLQASAQEKNGL
Km [1]: 896 µM | Km [2]: 342 µM

B2: Organic anion transporter 3 (Homo sapiens) (protein)
chain: MTFSEILDRVGSMGHFQFLHVAILGLPILNMANHNLLQIFTAATPVHHCRPPHNASTGPWVLPMGPNGKPERCLRFVHPPNASLPNDTQRAMEPCLDGWVYNSTKDSIVTEWDLVCNSNKLKEMAQSIFMAGILIGGLVLGDLSDRFGRRPILTCSYLLLAASGSGAAFSPTFPIYMVFRFLCGFGISGITLSTVILNVEWVPTRMRAIMSTALGYCYTFGQFILPGLAYAIPQWRWLQLTVSIPFFVFFLSSWWTPESIRWLVLSGKSSKALKILRRVAVFNGKKEEGERLSLEELKLNLQKEISLAKAKYTASDLFRIPMLRRMTFCLSLAWFATGFAYYSLAMGVEEFGVNLYILQIIFGGVDVPAKFITILSLSYLGRHTTQAAALLLAGGAILALTFVPLDLQTVRTVLAVFGKGCLSSSFSCLFLYTSELYPTVIRQTGMGVSNLWTRVGSMVSPLVKITGEVQPFIPNIIYGITALLGGSAALFLPETLNQPLPETIEDLENWSLRAKKPKQEPEVEKASQRIPLQPHGPGLGSS
Km [3]: 57.9 µM

B3: Solute carrier family 22 member 1 (Homo sapiens) (protein)
chain: MPTVDDILEQVGESGWFQKQAFLILCLLSAAFAPICVGIVFLGFTPDHHCQSPGVAELSQRCGWSPAEELNYTVPGLGPAGEAFLGQCRRYEVDWNQSALSCVDPLASLATNRSHLPLGPCQDGWVYDTPGSSIVTEFNLVCADSWKLDLFQSCLNAGFLFGSLGVGYFADRFGRKLCLLGTVLVNAVSGVLMAFSPNYMSMLLFRLLQGLVSKGNWMAGYTLITEFVGSGSRRTVAIMYQMAFTVGLVALTGLAYALPHWRWLQLAVSLPTFLFLLYYWCVPESPRWLLSQKRNTEAIKIMDHIAQKNGKLPPADLKMLSLEEDVTEKLSPSFADLFRTPRLRKRTFILMYLWFTDSVLYQGLILHMGATSGNLYLDFLYSALVEIPGAFIALITIDRVGRIYPMAMSNLLAGAACLVMIFISPDLHWLNIIIMCVGRMGITIAIQMICLVNAELYPTFVRNLGVMVCSSLCDIGGIITPFIVFRLREVWQALPLILFAVLGLLAAGVTLLLPETKGVALPETMKDAENLGRKAKPKENTIYLKVQTSEPSGT
Km [4]: 516 µM | Km [5]: 151 µM
